Test results published in patent US20250215092A1 (ZHEJIANG NANOMAB TECHNOLOGY CENTER, published 2025).

Tests used:
[1] = target: T1, human EGFR.His antigen (Acro, Cat #EGR-H522a) (human, UniProt P00533 25-645); assay: competition ELISA: EGFR his tag protein coated, antibody titrated together with Human EGF-mouse IgG2a Fc, bound EGF detected with HRP anti-mouse IgG, unit taken from the concentration axis (paragraph 62 says nM); OD450 falls only from about 2.4 to about 2.0-2.2 [table]
T1 construct: extracellular domain; Bought protein; also called EGFR his tag protein; full-length EGFR extracellular domain protein; not shown: His tag
Experimental: (§1) Briefly, EGFR his tag protein was diluted with PBS to 2 μg/mL, and 100 μL of the antigen was added to each well of an ELISA plate and coated overnight at 4° C. The next day, the plates were washed twice with PBST (containing 0.5% TWEEN-20), and then blocked with 3% BSA at 37° C. for 1.5 h, followed by two washes with PBST. […] VHH-IgG4 antibodies were diluted to 2000 nM and then serially diluted 4-fold for 8 gradients. […] After washing 3 times, HRP goat anti-mouse IgG (Goat anti-Mouse IgG) (H+L) antibody (Abcam, cat #ab205719) diluted at 1:3000 was added to each well, and the plate was incubated at 37° C. for 40 min. The plates were then washed 3 times with PBST, and 100 μL of TMB substrate was added to each well and allowed to react for 3-5 min. The reaction was stopped by adding 100 μL of 3N hydrochloric acid per well. After stopping the reaction, the optical density at 450/650 nm was measured using a Tecan microplate reader. The dose-response curve was plotted, and the IC50 was calculated using GraphPad Prism 8.0 software.

[2] = target: T1, human EGFR.His antigen (Acro, Cat …); assay: competition ELISA: EGFR his tag protein coated, antibody titrated together with Human EGF-mouse IgG2a Fc, bound EGF detected with HRP anti-mouse IgG, unit taken from the concentration axis (paragraph 62 says nM); OD450 falls from about 2.4 to a plateau of about 0.4 [table]
Experimental: as §1

IC50 [1] | IC50 [2] | Binder
0.152 µg/mL | – | E007 VHH-IgG4 antibody (antibody, V domains shown, not shown: a dimerising Fc or GST) VH: EVQLVESGGGLVQPGGSLRLSCEASGFSFSDHTMRWHRQAAGKNLELVAYITPAGDIIKYADSVQGRFTISRDNAKNMLYLQMDSLRPDDTAVYRCNALVSAAVRASDYWGQGTQVTVSS
– | 0.056 µg/mL | E008 VHH-IgG4 antibody (antibody, V domains shown, VHH fused to IgG4 (VHH-IgG4), expressed in ExpiCHO, protein A purified; not shown: human IgG4 constant part from the pCDNA3.4-IgG4 vector) VH: EVQVVESGGGLVQSGGSLTLSCTSSGLPLLDYAIGWFRQAPGKEREAVSAISISEGSTYYTDSVRGRFTISRDNNKNKVYLRMDNLKPEDTAVYYCAADKTDIGFWLLVGGAGGGEVRYEYWGQGTQVTVSS
